“And” between values parts separate entries of the source, which are not always exact repeats. Identical values can stand only once.
B1: Cytochrome b5 type B wild type, P04166 (protein)
chain: MATPEASGSGRNGQGSDPAVTYYRLEEVAKRNTAEETWMVIHGRVYDITRFLSEHPGGEEVLLEQAGADATESFEDVGHSPDAREMLKQYYIGDVHPNDLKPKDGDKDPSKNNSCQSSWAYWIVPIVGAILIGFLYRHFWADSKSS
B2: Cytochrome b5 wild type, P00171 (protein)
chain: MAEESSKAVKYYTLEEIQKHNNSKSTWLILHYKVYDLTKFLEEHPGGEEVLREQAGGDATENFEDVGHSTDARELSKTFIIGELHPDDRSKITKPSESIITTIDSNPSWWTNWLIPAISALFVALIYHLYTSEN

Conditions: pH 7, CD, transition: 2, reversible: yes, whole UniProt chain shown; for denaturant midpoint (higher = more stable): 25 °C, GdnHCl; for Tm: Thermal
[1] = Rattus norvegicus, potassium phosphate buffer

Protein | denaturant midpoint (higher = more stable) [1] | Tm [1] | denaturant midpoint (higher = more stable) (Bos taurus, MOPS buffer) | Tm (Bos taurus, MOPS buffer)
B1 | 4.09 M and 4.03 M | 87 °C | – | –
B2 | – | – | 2.99 M and 3.05 M | 73.1 °C

From FireProtDB (doi:10.1021/bi010636i)
